The target in the experiment is XKVLQT1 (Xenopus KVLQT1 homologue, 1.6 kb partial clone) (Xenopus) (UniProt P70057). The experiment is described as follows: cell-based or functional assay.
Sequence of UniProt P70057 (P70057 other isoform, or with tags, fused parts or gaps): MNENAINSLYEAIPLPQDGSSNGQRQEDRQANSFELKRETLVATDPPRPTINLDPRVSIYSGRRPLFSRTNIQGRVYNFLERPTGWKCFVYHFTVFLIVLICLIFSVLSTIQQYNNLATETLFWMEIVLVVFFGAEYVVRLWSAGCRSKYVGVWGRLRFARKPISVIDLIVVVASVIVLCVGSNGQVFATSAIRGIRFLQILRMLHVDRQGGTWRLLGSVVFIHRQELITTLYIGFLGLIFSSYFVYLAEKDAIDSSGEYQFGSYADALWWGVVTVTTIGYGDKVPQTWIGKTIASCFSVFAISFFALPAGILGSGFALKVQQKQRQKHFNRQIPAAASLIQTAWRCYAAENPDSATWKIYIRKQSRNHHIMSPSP

On to human minK (from UniProt P15382 1-129), for which the IsK at +40 mV, oocytes injected with 60 pg hminK cRNA was found to be 2.11 µA; the IsK at +40 mV, oocytes injected with 1 ng hminK cRNA was 2.2 µA; the V½ of the normalized isochronal activation curve, oocytes injected with hminK was determined as 2.4 mV.

The values above are taken from EP2085478A1.
